For orientation: Km means the concentration of substrate that gives half-maximal velocity. As a reminder, the kcat is the number of substrate molecules converted per active site and unit of time at saturation.

Substrate in the data set: Cc1ncc(COP(=O)(O)O)c(CN)c1O
Kind of data set: purified protein, by the assay type. The note with it: other: F48A, 50 mM Tris–HCl pH 7.6, 37°C, 2 μM enzyme.

B1: human PNPO F48A variant (Homo sapiens; F48A) (protein)
chain: MTCWLRGVTATFGRPAEWPGYLSHLCGRSAAMDLGPMRKSYRGDREAAEETHLTSLDPVKQFAAWFEEAVQCPDIGEANAMCLATCTRDGKPSARMLLLKGFGKDGFRFFTNFESRKGKELDSNPFASLVFYWEPLNRQVRVEGPVKKLPEEEAECYFHSRPKSSQIGAVVSHQSSVIPDREYLRKKNEELEQLYQDQEVPKPKSWGGYVLYPQVMEFWQGQTNRLHDRIVFRRGLPTGDSPLGPMTHRGEEDWLYERLAP
Regarding B1, the Km is 100 ± 5 µM and the kcat came to 0.1785 ± 0.003 s⁻¹.
